This experiment addresses DHR2 domain of human DOCK5 (residues I1212-L1642) (human). Kind of experiment: SEC-SAXS; unbound DOCK5^DHR2 at 80 μM; BioSEC-3 column; 20 mM Tris pH 8.0, 150 mM NaCl, 0.5 mM EDTA; 295 K. On the technique in general: Size exclusion chromatography separates by hydrodynamic size, large species first.

Among the data in paper PMC5663973 are stoichiometry N values, retold here.

As usually defined, the stoichiometry N is the number of molecules, sites or subunits per partner or assembly. Substance “DHR2 domain of human DOCK5 (residues I1212-L1642) (domain or fragment)” had a stoichiometry N of 2.
